Values of other authors, collected in patent US10543287.

Legend:
[1] = test system: rag2 ZFN pair (FokI) (synthetic construct); assay: cell_activity; settings: CITED ref 58 somatic mutation rate in zebrafish embryos, mutant lines obtained here (Table 1), half-sites only highlighted in figure
[2] = test system: jak3 ZFN pair (FokI) (synthetic construct); assay: cell_activity; settings: CITED ref 58 somatic mutation rate in zebrafish embryos, mutant lines obtained here (Table 1), half-sites only highlighted in figure

Row | Sequence | activity [1] [%] | activity [2] [%]
1 | CCATGATCTTCTGCTCCAGGGGTGAAGGTGGACACTG (double strand) [rag2 ZFN target] | 7.7 | –
2 | TATTTCTGCGCAGAAGTGGCCCCACCAAGCCTGCTGGAGGACATACAGAATTA (double strand) [jak3 ZFN target] | – | 1.4
